From the RNAGym collection of RNA variant scans (doi:10.1021/acssynbio.7b00057)

B1: Pistol ribozyme (parent)
chain: GGGUCGUUGUUCCAUAAUCGCGUGGAUAUGGCACGCAAGUUUCUACCGGGCACCGUAAAUGUCCGACUGGAGCCGUUCGGGCGGCUAUAAACAGACCUCAGGCCCGAAGCGUGGCGGCACCUGCCGCCGGUGGUAAAAAAGAUCGGAAGAGCACACGUCU

Variants of: B1
Experiment: aptazyme ON/OFF ratio, guanine; higher = stronger switching; co-transcriptional cleavage with and without guanine

Variant	aptazyme ON/OFF ratio
U7A G9A U10G U11G	1.08
U7A G9C U10C U11C C12U C13A	1.05
U7A G9C U10C U11C C12U C13G	1.04
U7A G9C U10C U11C C12U C13U	0.994
U7A G9C U10A U11A C12G	1.06
U7A G9C U10A U11A C12A	1.06
U7A G9C U10A U11A C12U	1.07
U7A G9C U10C C12A C13G	1.04
U7A G9C U10C C12A C13U	1.04
U7A G9C U10C C12A C13A	1.07
U7A G9C U10C U11C C13U	1.03
U7A G9C U10C U11C C13G	1.01
U7A G9C U10C U11C C13A	1.01
U7A G9A U11G C13U	1.38
U7A G9A U11G C13G	1.12
U7A G9A U11G C13A	1.26
U7A G9C U10C U11C C12A C13G	1.03
U7A G9C U10C U11C C12A C13A	1.02
U7A G9C U10C U11C C12A C13U	1.02
U7A G9A U11A	1.46
U7A G9A U11G	1.67

Variant	aptazyme ON/OFF ratio
U7A G9A U11C	1.02
U7A G9C C12A C13G	1.04
U7A G9C C12A C13U	1.1
U7A G9C C12A C13A	1.07
U7A G9C U10A	1.38
U7A G9C U10G	1.32
U7A G9C U10C	2.21
U7A G9A U10C U11G	1.31
U7A G9C U10C U11C C12G C13U	1.02
U7A G9C U10C U11C C12G C13G	1.09
U7A G9C U10C U11C C12G C13A	1.06
U7A G9A U10G U11C C12A C13G	1.14
U7A G9A U10G U11C C12A C13A	1.16
U7A G9A U10G U11C C12A C13U	1.11
U7A G9C U10G C12G C13U	1.1
U7A G9C U10G C12G C13A	1.07
U7A G9C U10G C12G C13G	1.1
U7A G9A U10G C13G	1.17
U7A G9A U10G C13U	1.28
U7A G9A U10G C13A	1.29
U7A G9C U10A C12A C13U	1.23

Variant	aptazyme ON/OFF ratio
U7A G9C U10A C12A C13G	1.09
U7A G9C U10A C12A C13A	1.14
U7A G9C U10C C13G	1.05
U7A G9C U10C C13U	1.22
U7A G9C U10C C13A	1.01
U7A G9A U10G U11G C12G C13A	1.2
U7A G9A U10G U11G C12G C13G	1.09
U7A G9A U10G U11G C12G C13U	1.16
U7A G9C U10A C12G	1.13
U7A G9C U10A C12U	1.14
U7A G9C U10A C12A	1.11
U7A G9C U10A U11C C12U C13A	1.1
U7A G9C U10A U11C C12U C13U	1.12
U7A G9C U10A U11C C12U C13G	1.13
U7A G9C U10A U11C C12U	1.07
U7A G9C U10A U11C C12G	1.21
U7A G9C U10A U11C C12A	1.08
U7A G9C U10A U11G	1.09
U7A G9C U10A U11A	1.07
U7A G9C U10A U11C	1.04
U7A G9A U10G U11C C12G	1.08

Variant	aptazyme ON/OFF ratio
U7A G9A U10G U11C C12A	1.21
U7A G9A U10G U11C C12U	1.08
U7A G9C U10G U11C C12A C13U	1.06
U7A G9C U10G U11C C12A C13G	1.05
U7A G9C U10G U11C C12A C13A	1.05
U7A G9C U10A U11G C12G	1.09
U7A G9C U10A U11G C12A	1.04
U7A G9C U10A U11G C12U	1.07
U7A G9A U10G U11A C12U C13G	1.06
U7A G9A U10G U11A C12U C13U	1.17
U7A G9A U10G U11A C12U C13A	1.09
U7A G9A U10G U11A C12A C13U	1.21
U7A G9A U10G U11A C12A C13A	1.11
U7A G9A U10G U11A C12A C13G	1.15
U7A G9A U10G C12G C13G	1.11
U7A G9A U10G C12G C13U	1.18
U7A G9A U10G C12G C13A	1.21
U7A G9C U10G U11A C12A C13U	1.07
U7A G9C U10G U11A C12A C13A	1.07
U7A G9C U10G U11A C12A C13G	1.08
